Biological target: COVID S1 RBD Fc fusion (Antigen 1) (SARS-CoV-2), P0DTC2
Assay: phage ELISA
Details: remark: other sources report otherwise

Row | Binder | ELISA fold over background [fold]
1 | SARS-CoV-2 variant 1-4 (antibody) chain 1: EVQLLESGGGLVQPGGSLRLSCAASGFTFSSQAMSWVRQAPGKGLEWVSAISGSGGGTYYADSVKGRFTISRDNSKNTLYLQMNSLRAEDTAVYYCAKDRRFGEFDPWGQGTLVTVSS chain 2: QSALTQPASVSGSPGQSITISCTGTSSDVGTYNLVSWYQQHPGKAPKLMIYEGSQRPSGVSNRFSGSKSGNTASLTISGLQAEDEADYYCCSYAGSSSFVVFGGGTKLTVL | 1.4
2 | SARS-CoV-2 variant 1-5 (antibody) chain 1: EVQLLESGGGLVQPGGSLRLSCAASGFTFSSQAMSWVRQAPGKGLEWVSAISGSGGGTYYADSVKGRFTISRDNSKNTLYLQMNSLRAEDTAVYYCAKDRRFGEFDPWGQGTLVTVSS chain 2: QSALTQPASVSGSPGQSITISCTGTSSGVGSYNLVSWYQQHPGKAPKLMIYEASKRPSGVSNRFSGSKSGNTASLTISGLQAEDEADYYCCSYAGSYTFAVFGGGTKLTVL | 1.6
3 | SARS-CoV-2 variant 1-31 (antibody) chain 1: EVQLLESGGGLVQPGGSLRLSCAASGFTFSSYAMNWVRQAPGKGLEWVSAISGSGGSTFYADSVKGRFTISRDNSKNTLYLQMNSLRAEDTAVYYCTRPPYGDYGDYWGQGTLVTVSS chain 2: QSALTQPASVSGSPGQSITISCTGTSSDVGKYNLVSWYQQHPGKAPKLMIYEGSQRPSGVSNRFSGSKSGNTASLTISGLQAEDEADYYCCSYAGSRTPVVFGGGTKLTVL | 1.3
4 | SARS-CoV-2 variant 1-30 (antibody) chain 1: EVQLLESGGGLVQPGGSLRLSCAASGFTFSSYAMTWVRQAPGKGLEWVSAISGSGGSTFYADSVKGRFTISRDNSKNTLYLQMNSLRAEDTAVYYCTRPPYGDYGDYWGQGTLVTVSS chain 2: QSALTQPASVSGSPGQSITISCTGTSRDVGSYNLVSWYQQHPGKAPKLMIYEGTKRPSGVSNRFSGSKSGNTASLTISGLQAEDEADYYCCSYAGSRTPVVFGGGTKLTVL | 1.7
5 | SARS-CoV-2 variant 1-3 (antibody) chain 1: EVQLLESGGGLVQPGGSLRLSCAASGFTFSSQAMSWVRQAPGKGLEWVSAISGSGGGTYYADSVKGRFTISRDNSKNTLYLQMNSLRAEDTAVYYCAKDRRFGEFDPWGQGTLVTVSS chain 2: QSALTQPASVSGSPGQSITISCTGISSDVGSYNLVSWYQQHPGKAPKLMIYEGTKRPSGVSNRFSGSKSGNTASLTISGLQAEDEADYYCCSYAGSSSFVVFGGGTKLTVL | 1.8
6 | SARS-CoV-2 variant 1-32 (antibody) chain 1: EVQLLESGGGLVQPGGSLRLSCAASGFTFSSYAMYWVRQAPGKGLEWVSAISGSGGSTFYADSVKGRFTISRDNSKNTLYLQMNSLRAEDTAVYYCTRPPYGDYGDYWGQGTLVTVSS chain 2: QSALTQPASVSGSPGQSITISCTGTSSDVGGYNLVSWYQQHPGKAPKLMIYEGNKRPSGVSNRFSGSKSGNTASLTISGLQAEDEADYYCCSYAGSSTFPVVFGGGTKLTVL | 1.5
7 | SARS-CoV-2 variant 1-28 (antibody) chain 1: EVQLLESGGGLVQPGGSLRLSCAASGFTFSSYGMSWVRQAPGKGLEWVSAISGSGGGTYYADSVKGRFTISRDNSKNTLYLQMNSLRAEDTAVYYCASSSSWQFDYWGQGTLVTVSS chain 2: QSALTQPASVSGSPGQSITISCTGTSSGVGSYNLVSWYQQHPGKAPKLMIYEGSQRPSGVSNRFSGSKSGNTASLTISGLQAEDEADYYCCSYAGSSTHYVFGGGTKLTVL | 1.1
8 | SARS-CoV-2 variant 1-49 (antibody) chain 1: EVQLLESGGGLVQPGGSLRLSCAASGFTFSSYAMYWVRQAPGKGLEWVSAISGSAGSTYYADSVKGRFTISRDNSKNTLYLQMNSLRAEDTAVYYCARDTNDFWGQGTLVTVSS chain 2: QSALTQPASVSGSPGQSITISCTGTSSDIGSYNLVSWYQQHPGKAPKLMIYEGTKRPSGVSNRFSGSKSGNTASLTISGLQAEDEADYYCCSYAGSRTYVFGGGTKLTVL | 1

Reference: patent publication US20210355194A1
